The values that follow come from publication PMC5416842, “The ribosome biogenesis factor yUtp23/hUTP23 coordinates key interactions in the yeast and human pre-40S particle and hUTP23 contains an essential PIN domain” (Nucleic Acids Research, 2017).

T1: GST-yUtp23 WT (Saccharomyces cerevisiae) (UniProt Q12339)
T1 sequence: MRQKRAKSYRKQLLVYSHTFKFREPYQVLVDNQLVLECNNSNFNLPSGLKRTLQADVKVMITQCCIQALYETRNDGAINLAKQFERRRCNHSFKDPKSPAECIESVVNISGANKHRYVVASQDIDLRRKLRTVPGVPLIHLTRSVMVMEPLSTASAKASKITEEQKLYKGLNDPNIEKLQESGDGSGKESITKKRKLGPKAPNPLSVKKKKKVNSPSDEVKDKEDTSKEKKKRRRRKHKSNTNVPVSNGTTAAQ

T2: N-terminally His-tagged hRRP7 (human, UniProt Q9Y3A4 1-280)
T2 construct: hRRP7, human; open reading frame amplified from human cDNA; The legend says that C-terminally truncated forms of the His-tagged hRRP7 protein were also present in the preparation; not shown: His tag, N-terminal, kept
T2 sequence (looked up): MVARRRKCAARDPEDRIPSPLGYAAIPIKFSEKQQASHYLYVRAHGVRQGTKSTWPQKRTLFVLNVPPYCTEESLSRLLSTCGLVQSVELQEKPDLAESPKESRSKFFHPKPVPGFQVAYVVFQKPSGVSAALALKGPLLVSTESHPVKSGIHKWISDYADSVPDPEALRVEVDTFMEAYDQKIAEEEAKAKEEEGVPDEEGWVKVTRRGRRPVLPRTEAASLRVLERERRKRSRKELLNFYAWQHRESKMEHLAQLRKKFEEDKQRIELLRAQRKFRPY

T3: GST-tagged yeast yRrp7 (S. cerevisiae, UniProt P25368 1-297)
T3 construct: yRrp7, S. cerevisiae; open reading frame amplified from yeast genomic DNA; also called GST-yRrp7
T3 sequence (looked up): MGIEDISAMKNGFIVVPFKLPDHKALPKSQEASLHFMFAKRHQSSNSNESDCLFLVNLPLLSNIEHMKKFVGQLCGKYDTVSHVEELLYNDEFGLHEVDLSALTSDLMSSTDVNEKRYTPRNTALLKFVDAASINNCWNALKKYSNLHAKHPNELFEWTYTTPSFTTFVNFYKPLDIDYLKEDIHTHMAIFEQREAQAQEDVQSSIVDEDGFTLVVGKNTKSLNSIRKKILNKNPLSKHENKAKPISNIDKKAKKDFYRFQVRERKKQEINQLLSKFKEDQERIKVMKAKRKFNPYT

T4: GST-tagged yeast yUtp23 (S. cerevisiae, UniProt Q12339 1-254)
T4 construct: yUtp23, S. cerevisiae; open reading frame amplified from yeast genomic DNA; also called GST-yUtp23
T4 sequence (looked up): T1 sequence

B1: GST-tagged human hUTP23 (natural protein, UniProt Q9BRU9 1-249, looked up)
chain: MKITRQKHAKKHLGFFRNNFGVREPYQILLDGTFCQAALRGRIQLREQLPRYLMGETQLCTTRCVLKELETLGKDLYGAKLIAQKCQVRNCPHFKNAVSGSECLLSMVEEGNPHHYFVATQDQNLSVKVKKKPGVPLMFIIQNTMVLDKPSPKTIAFVKAVESGQLVSVHEKESIKHLKEEQGLVKNTEQSRRKKRKKISGPNPLSCLKKKKKAPDTQSSASEKKRKRKRIRNRSNPKVLSEKQNAEGE
notes: hUTP23, human; open reading frame amplified from human cDNA; also called GST-hUTP23
B2: GST-tagged yeast yUtp24 (natural protein, S. cerevisiae, UniProt Q05498 1-189, looked up)
chain: MGKAKKTRKFGLVKRTLNTKKDQRLKKNQENIKTKEDPELTRNIPQVSSALFFQYNQAIKPPYQVLIDTNFINFSIQKKVDIVRGMMDCLLAKCNPLITDCVMAELEKLGPKYRIALKLARDPRIKRLSCSHKGTYADDCLVHRVLQHKCYIVATNDAGLKQRIRKIPGIPLMSVGGHAYVIEKLPDVF
notes: yUtp24/Fcf1, S. cerevisiae; open reading frame amplified from yeast genomic DNA; also called Fcf1; yUtp24(Fcf1)
B3: N-terminally His-tagged hNHP2 (natural protein, human, UniProt Q9NX24 1-153, looked up)
chain: MTKIKADPDGPEAQAEACSGERTYQELLVNQNPIAQPLASRRLTRKLYKCIKKAVKQKQIRRGVKEVQKFVNKGEKGIMVLAGDTLPIEVYCHLPVMCEDRNLPYVYIPSKTDLGAAAGSKRPTCVIMVKPHEEYQEAYDECLEEVQSLPLPL
notes: core box H/ACA protein hNHP2, human; open reading frame amplified from human cDNA; not shown: His tag, N-terminal, kept
B4: protein-A-His-tagged yUtp23 (natural protein, S. cerevisiae, UniProt Q12339 1-254, looked up)
chain: T1 sequence
notes: yUtp23, S. cerevisiae; open reading frame amplified from yeast genomic DNA
B5: N-terminally His-tagged hUTP24 (natural protein, human, UniProt Q9Y324 1-198, looked up)
chain: MGKQKKTRKYATMKRMLSLRDQRLKEKDRLKPKKKEKKDPSALKEREVPQHPSCLFFQYNTQLGPPYHILVDTNFINFSIKAKLDLVQSMMDCLYAKCIPCITDCVMAEIEKLGQKYRVALRIAKDPRFERLPCTHKGTYADDCLVQRVTQHKCYIVATVDRDLKRRIRKIPGVPIMYISNHRYNIERMPDDYGAPRF
notes: hUTP24 (human homologue of yUtp24/Fcf1); open reading frame amplified from human cDNA; not shown: His tag, N-terminal, kept

Data set [1] addresses T1, GST-yUtp23 WT (Saccharomyces cerevisiae). The data set is described as follows: EMSA. To be noted: EMSA: 10 mM Tris/HCl pH 7.6, 75 mM NaCl, 2 mM DTT, 100 ng/ul BSA, 0.8 U/ul RNasin, 4.5% glycerol, 0.05% Tween20, 500 ng/ul E. coli tRNA; 10 min 30 C then 10 min. (In EMSA bound probe runs differently from free probe, usually more slowly.)
Data set [2] has the same target. The data set is described as follows: competition. To be noted: EMSA: 10 mM Tris/HCl pH 7.6, 75 mM NaCl, 2 mM DTT, 100 ng/ul BSA, 0.8 U/ul RNasin, 4.5% glycerol, 0.05% Tween20, 500 ng/ul E. coli tRNA; 10 min 30 C then 10 min.
The test system of data set [3] is GST-yUtp23 WT (Saccharomyces cerevisiae). Put plainly: EMSA. To be noted: 100-1000 nM protein; EMSA: 10 mM Tris/HCl pH 7.6, 75 mM NaCl, 2 mM DTT, 100 ng/ul BSA, 0.8 U/ul RNasin, 4.5% glycerol, 0.05% Tween20, 500 ng/ul E. coli tRNA; 10 min 30 C then 10 min.
For data set [4], the target named is T2, N-terminally His-tagged hRRP7. The data set is described as follows: pull-down; GST-tagged hUTP23 immobilised on glutathione sepharose (pre-blocked with BSA), incubated with N-terminally His-tagged recombinant human proteins for 1 h at 4°C in Buffer NB (20 mM Tris/HCl pH 7.6, 150 mM NaCl, 8.7% glycerol, 0.1% Tween20); five washes; SDS-PAGE, immunoblotting with anti-His and anti-GST antibodies. To be noted: both partners purified.

For data set [5], the target named is B4. The data set is described as follows: pull-down; GST-tagged yeast bait proteins immobilised on glutathione sepharose (pre-blocked with BSA), incubated with recombinant protein-A-His-tagged yUtp23 for 1 h at 4°C in Buffer NB (20 mM Tris/HCl pH 7.6, 150 mM NaCl, 8.7% glycerol, 0.1% Tween20); five washes; SDS-PAGE, Coomassie staining. To be noted: both partners purified.

The target of the data set “GST-tagged human hUTP23” is B1. Put plainly: pull-down; GST-tagged hUTP23 immobilised on glutathione sepharose (pre-blocked with BSA), incubated with N-terminally His-tagged recombinant human proteins for 1 h at 4°C in Buffer NB (20 mM Tris/HCl pH 7.6, 150 mM NaCl, 8.7% glycerol, 0.1% Tween20); five washes; SDS-PAGE, immunoblotting with anti-His and anti-GST antibodies. To be noted: both partners purified.

Another data set addresses T3, GST-tagged yeast yRrp7. Put plainly: pull-down; GST-tagged yeast bait proteins immobilised on glutathione sepharose (pre-blocked with BSA), incubated with recombinant protein-A-His-tagged yUtp23 for 1 h at 4°C in Buffer NB (20 mM Tris/HCl pH 7.6, 150 mM NaCl, 8.7% glycerol, 0.1% Tween20); five washes; SDS-PAGE, Coomassie staining. To be noted: both partners purified.
A further data set has as its target T4, GST-tagged yeast yUtp23. The description is as above. To be noted: both partners purified.

Regarding “GGGUAGGACGCAUGAUCUUGAGCUCUUUUCCUAUACUUUGUCCUAUGGCCAGCUUUCUCCUUAUUACGAAGAGAUUGCGGGAUGUGGGUGCAGAGUGGGAAAAUCUGAGUUCGGUCAUCUUUGUUGUUCGUCCUAC [snR30 IH (nt 398-531)]”, in data set [1], the binding result was “no binding”.
Consider “GGCGUAUUGCUCGAAUAUAUUAGCAUGGAAUAAUAGAAUAGGACGUUUGGUUCUAUUUUGUUGGUUUCUAGGACCAUCGUAAUGAUUAAUAGGGACGGUCGGGGGCAUCAGUAUUCAAUUGUCAGAGGUGAAAUUCUUGGAUUUAUUGAAGACUAACUACUGCGAAAGCAUUUGCCAAGGACGUUUUCA [18S rRNA ES6 fragment (nt 775-963, RNA A)]”, for which the binding entry in data set [2] is reported as “binds”.
For the molecule “GGCCGCAGUAUAUUCCUAAACACUAUGAAAUGACCCUAGUUGGUCCAUGAUCAUUUGGGUAAAACCAUACUGCAGACAUCU [snR30 3' HP (nt 531-606)]”, the binding result in data set [1] was “no binding”.
Still for that read-out and setting: as for “GGGUAGGACGCAUGAUCUUGAGCUCUUUUCCUAUACUUUGUCCUAUGGCCAGCUUUCUCCUUAUUACGAAGAGAUUGCGGGAUGUGGGUGCAGAGUGGGAAAAUCUGAGUUCGGUCAUCUUUGUUGUUCGUCCUACCGCAGUAUAUUCCUAAACACUAUGAAAUGACCCUAGUUGGUCCAUGAUCAUUUGGGUAAAACCAUACUGCAGACAUCU [snR30 IH + 3' HP (nt 398-606)]”, the entry is “binds more weakly”.
As usually defined, the Kd is the equilibrium constant for the complex coming apart. Low values mean higher affinity, high ones lower affinity. snR30 full length (nt 1-606) registered a Kd in data set [3] of 0.3 µM.
For B1, the binding result in data set [4] is “binds”.
Consider B2, for which, in data set [5], the binding result is on record as “binds”.
As to B3, the binding result with GST-tagged human hUTP23 is on record as “binds”.
In the case of B4, the binding result in the data set with GST-tagged yeast yRrp7 and in the data set with GST-tagged yeast yUtp23 was “binds” throughout.
As to B5, the binding result with GST-tagged human hUTP23 is on record as “binds”.
